This sample holds only a part of the variants without activity.
B1: TPR 5TU (parent)
chain: GGAUCUUCUCGAUCUAACAAAAAAGACAAAUCUGCCACAAAGCUUGAGAGCAUCUUCGGAUGCAGAGGCGGCAGCCUUCGGUGGCGCGAUAGCGCCAACGUUCUCAACUAUGACACGCAAAACGCGUGCUCCGUUGAAUGGAGUUUAUCAUG

Variants of: B1
Assay: polymerase ribozyme fitness, log enrichment relative to wild type (log ratio); higher = more active; in vitro selection for triplet polymerase activity
Summary of the method: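 Fitness measures genotype enrichment against wild-type enrichment on a logarithmic scale, with inverse-variance-weighted averaging of replicates. The logarithm is base 2, and genotypes were kept only with ≥10 input reads and ≥1 read per output in Illumina sequencing. The sequenced libraries came from one triplicate in vitro selection round, including frozen incubation at −7 °C, of PCR-built, transcribed mutant libraries of each subunit of a heterodimeric triplet polymerase ribozyme.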

Variant	polymerase ribozyme fitness (log ratio)
U61A G92C	-3.57
A60G C96U U101G G128A	-3.75
A60G G83A G133C	-1
A60C G84U	-2.22
A60C G92U	-0.296
G59U A120G	-0.485
A60G C116A	1.26
G62A C93A	-1.93
U61G C76A U78C G88C	≤ -4.2
A60G A73G C85A	-2.02
A60G C95A U101C	0.139
A60G C87A U109A C132G	≤ -4.2
A60U C85A	-3.04
A60U C85G	-3.14
A60U C85U	-1.46
U61G C93U G94A U144G	≤ -4.2
A60C C76U A89G C114U G141U	≤ -4.2
G59U C87G C95U U101G C149G	≤ -4.2
A60C U61A	-2.27
G62A C116U	-0.0465
G62A C76A C79A C96A	≤ -4.2

Variant	polymerase ribozyme fitness (log ratio)
G59C U127A	-3.77
G62C A137C U148G	≤ -4.2
G59C G126C	0.783
G59U G86U	-3.85
A60C A91U	≤ -4.2
U61A C108U	-3.86
U61G A91C C93U C114A G126A U135G	≤ -4.2
A60C G92U A97G	-2.29
A60C C93A A98U A122C	-2.61
G59C U78C C85A U144A A150U	≤ -4.2
G62A C75U	-0.822
U61A C96U	-1.32
U61A C96A	-1.36
U61A A73G G94U	-3
G59U G68A C96U	≤ -4.2
A60C A120U A137C G140U	≤ -4.2
G59C G67A U78G C79A C87A G143A	≤ -4.2
A60U C131G	-3.54
U61G C95G U135C	-4.17
A60G G88C A106U U134A G140C G143C	≤ -4.2
U61G C85A G143C	-3.43

Variant	polymerase ribozyme fitness (log ratio)
G59C G94C	-0.253
U61A G74A C76U C87A C108U A142U	≤ -4.2
A60G C72U G124A	0.612
G62C C72A A91G A98G C123U	≤ -4.2
A60U C87U U135C	-3.65
G59C G68C C118G	-4.15
G59C G86U	-1.67
G59U C95U	-2.6
U61A C79A G83C	≤ -4.2
G59C G83A C103U A122G	-0.809
A60C U82A G84U U102G G126U	≤ -4.2
G62A G81U C95A G126U	0.493
U61G G92C C95U C105U A106C U109C A138G	≤ -4.2
G62A G84A U135A	-1.93
G59U A107U U127A	≤ -4.2
A60C U101G	-1.58
A60U C93A	-3.06
A60G U90A C95A G117A	-3.93
A60G G94U	-0.467
U61G G62A C87U	-1.28
A60U C87U	-1.36

Variant	polymerase ribozyme fitness (log ratio)
A60C G65U C132A	-4.19
G62A G86A A122C	-1.02
U61C G70A	-4.13
A60G G94A C103A G140C	≤ -4.2
A60G G67U C93G U102C	≤ -4.2
G59U G81A C85G A106C	-3.51
U61G G84A U139C U145C	≤ -4.2
G62C C72U C93U G133A G141U	≤ -4.2
U61A G65A G67C G84U C96G G141U	≤ -4.2
A60G A89C U104G C108G	≤ -4.2
U61A C63U C85G A119U C131A	≤ -4.2
A60G A91G	-2.73
G59U G94A C118U A150G	-1.69
A60G C85U U144G	0.543
A60G A119C A120U U151C	-4.18
U61G C93G A98U A138C	≤ -4.2
U61A A107C G128U U139A	≤ -4.2
A60C C76U C93U	-3.48
U61G C85A G133C	-3.52
U61A A89C A107U G117U U144G U151A	≤ -4.2
